In IntAct's records for PubMed 25819436:

What was measured:
sh3g2_rat Sh3gl2 = sh3g2_rat Sh3gl2 (UniProt O35179)
sh3g1_rat Sh3gl1 = sh3g1_rat Sh3gl1 (UniProt O35964)
amph_rat Amph = amph_rat Amph (UniProt O08838)
grb2_human GRB2 = grb2_human GRB2 (UniProt P62993)

Measured: effect of a mutation on the interaction

Chain of SLIT-ROBO Rho GTPase-activating protein 3 (Homo sapiens), O43295 P1056A;P1059A (O43295 whole entry P1056A/P1059A): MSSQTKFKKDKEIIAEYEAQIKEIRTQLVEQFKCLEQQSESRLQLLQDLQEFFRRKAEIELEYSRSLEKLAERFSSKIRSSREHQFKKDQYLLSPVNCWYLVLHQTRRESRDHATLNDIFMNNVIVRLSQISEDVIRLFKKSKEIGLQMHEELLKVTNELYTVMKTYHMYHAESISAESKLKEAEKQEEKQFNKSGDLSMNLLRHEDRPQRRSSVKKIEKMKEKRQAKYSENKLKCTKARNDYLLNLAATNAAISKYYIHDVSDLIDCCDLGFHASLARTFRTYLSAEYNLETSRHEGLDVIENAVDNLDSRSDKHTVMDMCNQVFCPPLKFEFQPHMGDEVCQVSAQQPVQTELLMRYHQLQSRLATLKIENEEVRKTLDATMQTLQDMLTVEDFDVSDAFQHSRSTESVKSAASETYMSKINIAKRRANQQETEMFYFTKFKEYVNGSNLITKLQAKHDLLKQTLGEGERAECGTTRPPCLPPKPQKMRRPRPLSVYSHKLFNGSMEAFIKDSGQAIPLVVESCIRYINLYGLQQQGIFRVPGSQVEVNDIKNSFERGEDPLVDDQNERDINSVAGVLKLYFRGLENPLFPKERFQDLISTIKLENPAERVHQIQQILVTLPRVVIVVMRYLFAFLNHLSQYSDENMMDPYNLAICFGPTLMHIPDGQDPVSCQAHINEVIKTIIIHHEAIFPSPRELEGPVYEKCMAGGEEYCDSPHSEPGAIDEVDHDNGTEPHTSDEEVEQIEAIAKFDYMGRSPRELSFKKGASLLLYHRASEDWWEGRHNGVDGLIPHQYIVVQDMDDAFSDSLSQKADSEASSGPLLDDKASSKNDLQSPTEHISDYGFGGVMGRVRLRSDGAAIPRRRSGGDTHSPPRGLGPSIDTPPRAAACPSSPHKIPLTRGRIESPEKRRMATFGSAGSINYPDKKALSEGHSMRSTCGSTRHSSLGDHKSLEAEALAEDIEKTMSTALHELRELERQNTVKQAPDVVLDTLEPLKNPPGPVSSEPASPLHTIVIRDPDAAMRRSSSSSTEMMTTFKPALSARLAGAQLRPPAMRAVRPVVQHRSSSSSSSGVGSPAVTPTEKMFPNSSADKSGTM
Chain of grb2_human GRB2 (P62993 whole entry, looked up): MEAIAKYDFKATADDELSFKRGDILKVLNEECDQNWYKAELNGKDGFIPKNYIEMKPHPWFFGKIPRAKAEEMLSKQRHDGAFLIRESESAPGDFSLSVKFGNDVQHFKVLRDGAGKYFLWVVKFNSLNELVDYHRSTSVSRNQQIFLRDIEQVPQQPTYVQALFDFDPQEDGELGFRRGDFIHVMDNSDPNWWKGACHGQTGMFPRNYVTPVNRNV
Chain of sh3g2_rat Sh3gl2 (O35179 whole entry): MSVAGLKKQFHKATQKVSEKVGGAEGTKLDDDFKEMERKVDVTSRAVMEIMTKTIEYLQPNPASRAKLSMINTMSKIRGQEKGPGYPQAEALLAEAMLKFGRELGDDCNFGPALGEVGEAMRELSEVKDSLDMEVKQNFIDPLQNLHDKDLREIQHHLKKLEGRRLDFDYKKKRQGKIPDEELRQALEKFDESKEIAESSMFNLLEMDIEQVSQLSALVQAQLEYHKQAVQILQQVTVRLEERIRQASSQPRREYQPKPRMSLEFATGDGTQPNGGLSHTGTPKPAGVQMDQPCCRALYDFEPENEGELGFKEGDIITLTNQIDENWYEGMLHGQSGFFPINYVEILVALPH
Chain of sh3g1_rat Sh3gl1 (O35964 whole entry): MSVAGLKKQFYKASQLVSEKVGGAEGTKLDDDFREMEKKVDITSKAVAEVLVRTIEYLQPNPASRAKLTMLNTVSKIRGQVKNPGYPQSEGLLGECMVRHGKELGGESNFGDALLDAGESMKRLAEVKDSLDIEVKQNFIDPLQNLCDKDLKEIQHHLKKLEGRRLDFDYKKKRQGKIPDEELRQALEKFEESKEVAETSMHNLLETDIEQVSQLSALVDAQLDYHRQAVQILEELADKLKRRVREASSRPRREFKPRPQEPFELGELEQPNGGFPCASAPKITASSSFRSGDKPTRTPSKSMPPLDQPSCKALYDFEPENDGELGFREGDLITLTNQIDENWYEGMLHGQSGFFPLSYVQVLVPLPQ
Chain of amph_rat Amph (O08838 whole entry): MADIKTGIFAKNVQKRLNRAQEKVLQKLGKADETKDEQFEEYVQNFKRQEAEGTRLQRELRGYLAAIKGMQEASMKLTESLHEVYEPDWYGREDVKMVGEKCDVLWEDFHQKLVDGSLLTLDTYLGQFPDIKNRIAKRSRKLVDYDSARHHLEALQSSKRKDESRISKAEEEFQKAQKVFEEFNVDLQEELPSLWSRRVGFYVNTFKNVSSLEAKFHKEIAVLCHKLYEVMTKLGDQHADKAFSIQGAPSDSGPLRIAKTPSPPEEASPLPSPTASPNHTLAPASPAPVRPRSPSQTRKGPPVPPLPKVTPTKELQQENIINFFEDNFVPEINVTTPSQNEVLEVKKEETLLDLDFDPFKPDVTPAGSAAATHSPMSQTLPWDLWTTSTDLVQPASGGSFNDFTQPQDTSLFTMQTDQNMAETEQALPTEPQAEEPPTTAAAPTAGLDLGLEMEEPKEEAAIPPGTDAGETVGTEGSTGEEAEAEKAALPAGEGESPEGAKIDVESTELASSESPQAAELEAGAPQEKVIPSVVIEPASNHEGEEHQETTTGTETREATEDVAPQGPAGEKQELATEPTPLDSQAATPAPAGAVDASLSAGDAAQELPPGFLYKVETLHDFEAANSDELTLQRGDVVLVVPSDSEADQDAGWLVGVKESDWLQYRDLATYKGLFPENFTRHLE

SLIT-ROBO Rho GTPase-activating protein 3 (Homo sapiens), O43295 P1056A;P1059A
disrupting interaction: all assays above
